According to US20170145104A1 (Bristol-Myers Squibb, published 2017):

T1: non-glycosylated N-terminal human GITR peptide consisting of SEQ ID NO: 215 (human)
T1 construct: Made by proteolysis of native GITR-mouse Fc and also by organic synthesis; also called N-terminal peptide without O-linked glycosylation
T1 peptide: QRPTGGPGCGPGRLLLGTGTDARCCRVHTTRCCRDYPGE

T2: human GITR, membrane bound (on activated human T cells and on 3A9-hGITR cells) (human, UniProt Q9Y5U5 26-241)
T2 construct: whole, on cells; the cell is named under assay; also called huGITR; TNFRSF18
T2 sequence (looked up): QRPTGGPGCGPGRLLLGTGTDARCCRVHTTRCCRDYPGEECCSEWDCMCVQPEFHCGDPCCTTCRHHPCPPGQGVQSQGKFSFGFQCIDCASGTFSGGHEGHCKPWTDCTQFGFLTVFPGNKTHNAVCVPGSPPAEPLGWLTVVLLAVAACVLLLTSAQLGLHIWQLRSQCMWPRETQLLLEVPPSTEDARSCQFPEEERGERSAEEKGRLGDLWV

T3: cynomolgus GITR on activated cynomolgus T cells (cynomolgus, UniProt Q9Y5U5 26-241 (human entry))
T3 construct: also called cyno GITR
T3 chain: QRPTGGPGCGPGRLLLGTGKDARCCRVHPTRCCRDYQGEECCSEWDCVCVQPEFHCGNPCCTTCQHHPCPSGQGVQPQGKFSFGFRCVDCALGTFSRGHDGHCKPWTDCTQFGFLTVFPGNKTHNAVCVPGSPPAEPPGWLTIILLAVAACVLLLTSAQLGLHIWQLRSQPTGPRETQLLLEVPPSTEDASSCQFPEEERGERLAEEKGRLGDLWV

T4: mouse GITR (mouse, UniProt O35714 20-228)
T4 construct: whole, on cells; also called muGITR
T4 sequence (looked up): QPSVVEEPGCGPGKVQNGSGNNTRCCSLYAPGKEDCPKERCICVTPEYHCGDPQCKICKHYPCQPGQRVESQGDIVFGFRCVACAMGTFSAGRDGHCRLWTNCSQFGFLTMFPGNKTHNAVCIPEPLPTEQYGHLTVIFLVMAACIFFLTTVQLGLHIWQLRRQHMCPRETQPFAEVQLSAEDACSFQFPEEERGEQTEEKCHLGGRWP


Columns and labels:
[1] = target: T1, non-glycosylated N-terminal human GITR …; experiment: capture on 28F3 coated beads, LC-MS
Protocol: The experiment was conducted as follows: Human GITR peptide fragments were generated by incubation of human GITR with Endoproteinase Arg-C, Endoproteinase Lys-C, Trypsin, Endoproteinase Glu-C or Endoproteinase Asp-N at a 2% w/w ratio at 37° C. in PBS for five hours without the presence of denaturing reagents. The peptide mixture was then incubated with anti-GITR Ab beads in PBS at room temperature for two hours. Some samples were subjected to in situ secondary cleavage by incubation with a different enzyme in PBS for an hour. Unbound peptides were removed by washing the anti-GITR Ab beads twice with PBS.

[2] = target: T2, human GITR, membrane bound (on …); experiment: FACS, activated human T cells (anti-CD3/anti-CD28), PE anti-human IgG
Protocol: (§1) Peripheral Blood Mononuclear Cells (PBMCs) isolated from human or cynomolgus monkey were activated with plate-coated anti-CD3 antibody (Clone: UCHT1 for human T cell activation; Clone: SP34 for cynomolgus T cell activation; both from BD Biosciences) and soluble anti-CD28 antibody (Clone:CD28.2 for both human and cynomolgus monkey, BD Biosciences) for 4 days (human)/or 5 days (cynomolgus monkey). The cells were tested for GITR mAb binding in a fluorescence-activated cell sorting (FACS)-based assay using a phycoerythrin (PE)-conjugated anti-human IgG antibody (Jackson ImmunoResearch). The samples were analyzed on a BD FACS Canto Flow Cytometer.

[3] = target: T3, cynomolgus GITR on activated cynomolgus …; experiment: FACS, activated cynomolgus T cells (anti-CD3/anti-CD28), PE anti-human IgG
Protocol: as §1

mouse GITR = target: T4, mouse GITR; experiment: stated in the Treg suppression assay with wildtype and huGITR knock-in mouse T cells
[4] = target: T2, human GITR, membrane bound (on …); experiment: FACS blocking assay on GITR-3A9 cells with GITR-L, plotted as % inhibition. The table prints no unit, so ug/mL is taken from the axis 'Conc (ug/mL)'.
[5] = target: T2, human GITR, membrane bound (on …); experiment: FACS blocking assay on GITR-3A9 cells: antibody titrated first, then GITR-L, bound GITR-L read as GMFI (PE). The table prints no unit, so ug/mL is taken from the axis 'Conc (ug/mL)'.
[6] = target: T2, human GITR, membrane bound (on …); experiment: FACS binding to 3A9-hGITR transfectant, Geo-MFI (PE); EC50 table beside the curves; unit from the axis; the lowest curve (small diamonds) reaches only about 40 Geo-MFI at the top concentration
[7] = target: T2, human GITR, membrane bound (on …); experiment: FACS binding to 3A9-hGITR transfectant, Geo-MFI (PE); EC50 table beside the curves; unit from the axis
[8] = target: T3, cynomolgus GITR on activated cynomolgus …; experiment: FACS on activated cynomolgus T cells, PE anti-human IgG. The EC50 table prints no unit, so nM is taken from the axis 'Concentration (nM)'. The 3C3 curve itself is flat, see non_binding.
Protocol: as §1

EC50 [2] [nM] | EC50 [3] [µM] | EC50 [4] [µg/mL] | EC50 [5] [µg/mL] | Binder | further results
0.192 | 0.00104 | 0.278 | 0.278 | 28F3 (antibody, human IgG2, kappa, Hybridoma-derived human antibody, IgG2 constant region; also called 13H2; 28F3 (IgG2)) heavy: QVQLVESGGGVVQPGRSLRLSCAASGFTFSSYGMHWVRQAPGKGLEWVAVIWYEGSNKYYADSVKGRFTISRDNSKNTLYLQMNSLRAEDTAVYYCARGGSMVRGDYYYGMDVWGQGTTVTVSSASTKGPSVFPLAPCSRSTSESTAALGCLVKDYFPEPVTVSWNSGALTSGVHTFPAVLQSSGLYSLSSVVTVPSSNFGTQTYTCNVDHKPSNTKVDKTVERKCCVECPPCPAPPVAGPSVFLFPPKPKDTLMISRTPEVTCVVVDVSHEDPEVQFNWYVDGVEVHNAKTKPREEQFNSTFRVVSVLTVVHQDWLNGKEYKCKVSNKGLPAPIEKTISKTKGQPREPQVYTLPPSREEMTKNQVSLTCLVKGFYPSDIAVEWESNGQPENNYKTTPPMLDSDGSFFLYSKLTVDKSRWQQGNVFSCSVMHEALHNHYTQKSLSLSPGK light: not shown | binding result [1]: binds; binding result (mouse GITR): no binding
– | – | – | – | 28F3 VH CDR3 mutant M98S, D106E, M111F (antibody, V domains shown, also called E4) VH: QVQLVESGGGVVQPGRSLRLSCAASGFTFSSYGMHWVRQAPGKGLEWVAVIWYEGSNKYYADSVKGRFTISRDNSKNTLYLQMNSLRAEDTAVYYCARGGSSVRGEYYYGFDVWGQGTTVTVSS VL: AIQLTQSPSSLSASVGDRVTITCRASQGISSALAWYQQKPGKAPKLLIYDASSLESGVPSRFSGSGSGTDFTLTISSLQPEDFATYYCQQFNSYPYTFGQGTKLEIK | EC50 [6]: ~38600 µM
– | – | – | – | 28F3 VH CDR3 mutant M98Y, D106E, M111F (antibody, V domains shown, also called G4) VH: QVQLVESGGGVVQPGRSLRLSCAASGFTFSSYGMHWVRQAPGKGLEWVAVIWYEGSNKYYADSVKGRFTISRDNSKNTLYLQMNSLRAEDTAVYYCARGGSYVRGEYYYGFDVWGQGTTVTVSS VL: AIQLTQSPSSLSASVGDRVTITCRASQGISSALAWYQQKPGKAPKLLIYDASSLESGVPSRFSGSGSGTDFTLTISSLQPEDFATYYCQQFNSYPYTFGQGTKLEIK | EC50 [7]: 0.045 µM
0.0492 | – | 0.0693 | 0.0693 | 3C3 (antibody, human IgG1, kappa, V domains shown, Hybridoma-derived human antibody; also called GITR.3; 3C3-1) VH: QVQLQQWGAGLLKPSETLSLTCAVYGGSFSGYYWTWIRQPPGKGLEWIGKINHSGNTNYNPSLKSRVTISVDTSKNQFSLKLSSVTAADTAVYYCARLGAFDAFDIWGQGTMVTVSS VL: DIQMTQSPSSLSASVGDRVTITCRASQGISSWLAWYQQKPEKAPKSLIYAASSLQSGVPSRFSGSGSGTDFTLTISSLQPEDFATYYCQQYNSYPYTFGQGTKLEIKR | EC50 [8]: 0.142 µM
0.363 | – | 0.755 | 0.755 | 19D3 (antibody, human IgG2, kappa, V domains shown, Hybridoma-derived human antibody; also called 19D3-IgG2) VH: QVQLVESGGGVVQPGRSLRLSCAASGFTFSSYGFHWVRQAPGKGLEWVAVIWYAGSNKFYADSVKGRFTISRDNSKNTLYLQMNSLRAEDTAVYYCARGGQLDYYYYYVMDVWGQGTTVTVSS VL: DIQMTQSPSSLSASVGDRVTITCRASQGISSWLAWYQQKPEKAPKSLIYAASSLQSGVPSRFSGSGSGTDFTLTISSLQPEDFATYYCQQYNSYPYTFGQGTKLEIKR | –
0.146 | 0.000913 | – | – | 18E10 (antibody, human IgG2, kappa, V domains shown, Hybridoma-derived human antibody; also called 18E10-IgG2) VH: QVQLVESGGGVVQPGRSLRLSCAASGFTFSSYGMHWVRQAPGKGLEWVAVIWYAGSNKYYADSVKGRFTISRDNSKNTLYLQMNSLRAEDTAVYYCARGGRIAVAFYYSMDVWGQGTTVTVSS VL: DIQMTQSPSSLSASVGDRVTITCRASQGISSWLAWYQQKPEKAPKSLIYAASSLQSGVPSRFSGSGSGTDFTLTISSLQPEDFATYYCQQYNSYPYTFGQGTKLEIKR | –
